Results on one substance are retold here after publication PMC12481158.

This assay deals with CHLOROPLAST UNUSUAL POSITIONING 1 with C-terminal GFP (CHUP1:GFP) (N. benthamiana). In words: FRET or BRET; nonfitting FLIM-FRET (average-arrival-time FRET) in planta; CHUP1:GFP donor, KAC1:RFP acceptor; mean weighted photon arrival time on chloroplasts juxtaposed to the PM.

The substance “KINESIN-LIKE PROTEIN FOR ACTIN-BASED CHLOROPLAST MOVEMENT 1 with C-terminal RFP (KAC1:RFP) (natural protein)” gave a decrease in donor lifetime against CHUP1:GFP alone of 143 ps and a donor (CHUP1:GFP) fluorescence lifetime with KAC1:RFP of 2.27 ns.
